These results are taken from paper PMC12579237, “Development of antibody drug conjugates targeting epithelial membrane protein 2-highly expressed lung cancer” (Cell Death & Disease, 2025).

For assay [1], the target named is T1, hEMP2-GFP (Homo sapiens, UniProt P54851).
T1 construct: epithelial membrane protein 2 (EMP2), human, fused to GFP; also called human EMP2-GFP; pCDH-EMP2-GFP; source: HEK293T, transfected, in lysate; A549, transfected, in cells; stably overexpressed (lentivirus) in A549, NCI-H520 and LLC cells

For assay [2], the target named is T2, Purified EMP2 protein (human, UniProt P54851 1-167).
T2 chain: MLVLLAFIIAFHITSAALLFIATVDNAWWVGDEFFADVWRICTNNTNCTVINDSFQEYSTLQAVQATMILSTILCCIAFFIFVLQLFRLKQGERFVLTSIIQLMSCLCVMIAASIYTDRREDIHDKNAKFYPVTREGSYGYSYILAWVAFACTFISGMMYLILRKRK
Description: SPR.

Assay [3] has as its target T1, hEMP2-GFP. Kind of assay: immunostaining of cells or tissue; immunofluorescence of A549 cells transfected with hEMP2-GFP, stained with FK002; colocalization quantified. The conditions noted are these: one partner purified.
Assay [4] has as its target T3, epithelial membrane protein 2 (EMP2), endogenous in NCI-H226 cells (Homo sapiens, UniProt P54851).
T3 construct: epithelial membrane protein 2 (EMP2), human, endogenous in NCI-H226 lung squamous carcinoma cells; On live cells in the flow cytometry; in whole-cell lysate in the immunoprecipitation; also called human EMP2; source: endogenous, NCI-H226 whole-cell lysate; endogenous, on NCI-H226 cells
Kind of assay: affinity purification with mass spectrometry; FK002 antibody incubated with NCI-H226 whole-cell lysate; immunoprecipitate silver stained, qualitative mass spectrometry. The conditions noted are these: one partner purified.

Assay [5] deals with T4, Peptide 4. KFYPVTREGS (129-138aa) (Homo sapiens).
T4 construct: human EMP2 residues 129-138; source: synthetic peptide (GenScript)
T4 chain: KFYPVTREGS
Description: far-Western, overlay or dot blot; dot blot: 2.5 µL of each sample spotted on nitrocellulose (legend: 1 μg/spot), probed with FK002 antibody and HRP-conjugated mouse secondary antibody. As to conditions: both partners purified.

Assay [6] addresses T2, Purified EMP2 protein. Description: SPR; Biacore 8K; EMP2 protein (approximately 12,000 RU) amine coupled; FK002Ab injected at 8 concentrations (0.02-1 μM), 20 μL/min, 100 s association, 180 s dissociation; PBS pH 7.2-7.4 with 1% dimethyl sulfoxide.

B1: FK002-exatecan (antibody, V domains shown)
VH: DVQLQESGPGLVKPSQSLSLTCSVTGYSITSGYYWNWIRQFPGNKLEWMGYIRYDGRNNYNPSLKNRISITRDTSKNQFFLKLNSVTTEDTATYYCARDFDYWGQGTTLTVSS
VL: DIVLTQSPASLAVSLGQRATISCRASESVDTYGNSFMHWYQQKPGQPPKLLIYRASNLESGIPARFSGSGSRTDFTLTINPVEADDVATYYCHQSNEDPDTFGGGTKLEIKR
modifications: exatecan conjugated by the T1000 (Mc-VA-PABC(PSAR1o)) linker to the fully reduced antibody; DAR approximately 8 per antibody; residues not stated | exatecan conjugated by the T1000 (Mc-VA-PABC(PSAR1o)) linker to the fully reduced antibody; DAR approximately 8 per antibody; residues not stated
As for B1, the EMP2 left on the cell surface, flow cytometry of EMP2-overexpressing NCI-H520 and NCI-A549 cells with or without FK002-exatecan (100 nM) for 48 h in the assay with hEMP2-GFP [1] is below 35%.

B2: FK002 antibody (mouse mAb) (antibody, V domains shown)
VH: B1 VH
VL: DIVLTQSPASLAVSLGQRATISCRASESVDTYGNSFMHWYQQKPGQPPKLLIYRASNLESGIPARFSGSGSRTDFTLTINPVEADDVATYYCHQSNEDPDTFGGGTKLEIK
notes: V region of the printed chimeric heavy chain; mouse IgG heavy constant region; V region of the printed chimeric light chain; mouse light constant region; Flow cytometry, immunofluorescence, immunoblot and dot blot used the mouse mAb (anti-mouse secondary antibodies); also called FK002Ab; FK002 mAb; source: hybridoma, mouse ascites (from Abmart)
In the assay with Purified EMP2 protein [2], B2 had a koff of 0.00328 s⁻¹. For the same molecule, the binding result (in the assay with hEMP2-GFP [3]; in assay [4]; in assay [5]) was “binds” each time. Besides, in the assay with Purified EMP2 protein [6], the Kd was found to be 40.3 nM.
